Switch fluorescence ratio data for 79 sequences are collected here from the supplement of paper PMC10126150.

± gives the standard deviation of the averaged measurements.

The data set relates to ATP. The experiment in a line: switch fluorescence ratio, 500 uM ATP over buffer (Cy3 cluster intensity, sum of 5 cycles each) (fold (ratio)); higher = stronger signal-on switching upon ATP binding; sequences stand for … in TCGTCGGCAGCGTCAGATGTGTATAAGAGACAGTTTTTTTTTTTTTTTTTTTTTTTTT…TC. The note with it: aptamer strand: ATP DNA aptamer (quencher-CACCTGGGGGAGTATTGCGGAGGAAGG + anchor), 100 nM annealed; ATP concentration: 500 uM. In outline: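 Between each of five buffer/ATP cycles, the flow-cell was stripped with NaOH and re-annealed. Each cycle imaged Cy3-labelled switching-strand clusters, annealed to 100 nM quencher-labelled ATP aptamer on a modified Illumina MiSeq flow-cell, first in selection buffer and then after 15 min with 500 uM ATP at 22 °C. The fluorescence ratio is summed target-cycle over summed buffer-cycle Cy3 intensity per cluster, averaged per switch-domain sequence, with clusters outside 100-1000 RFU excluded.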
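Also: ATP exposure 15 min at 22 °C before imaging.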

TTTAAAAGAT: the switch fluorescence ratio worked out at 1.01 ± 0.035.

For the sequence TTGTTGTGAC, the switch fluorescence ratio is 0.994 ± 0.028.

In the case of CTTTTATTTA, the switch fluorescence ratio is 0.99186 ± 0.00094.

TGATTGTGAA: the switch fluorescence ratio came out at 1 ± 0.024.

Regarding ACAAGTGGAC, the switch fluorescence ratio is 1.033 ± 0.0026.

With CTAAGAGCGC, the switch fluorescence ratio was 1.08 ± 0.064.

For the sequence TCGTAGTATT, the switch fluorescence ratio stood at 0.993 ± 0.021.

For the sequence TTATTGGCAA, the switch fluorescence ratio was determined as 1.29 ± 0.34.

On to TAATCAAAGT, for which the switch fluorescence ratio was 1.02 ± 0.018.

As to TTTATTTCCA, the switch fluorescence ratio turned out to be 0.996 ± 0.03.

As to ATAGGTTGTT, the switch fluorescence ratio came out at 0.973 ± 0.016.

For CCAACTGGGA, the switch fluorescence ratio turned out to be 1.05 ± 0.012.

For the sequence AAGACAGCGA, the switch fluorescence ratio came out at 1.41 ± 0.57.

On to TATGTAGGGC, for which the switch fluorescence ratio is 1.02 ± 0.05.

As for TTATTATAGT, the switch fluorescence ratio is 1 ± 0.015.

On to CGATATGTAG, for which the switch fluorescence ratio amounted to 1.016 ± 0.0045.

With ATCGCAATTG, the switch fluorescence ratio was 1.89 ± 0.36.

Turning to TATGTCGGTT, the switch fluorescence ratio amounted to 0.985 ± 0.033.

GAGGGCTTTT: the switch fluorescence ratio was 0.98 ± 0.017.

Regarding CATGTGTGAG, the switch fluorescence ratio came out at 0.949 ± 0.026.

For TTTTTGTAGG, the switch fluorescence ratio was determined as 0.995 ± 0.016.

AGCCTTTCGT: the switch fluorescence ratio came to 1.01 ± 0.054.

Regarding AAAAGTTACA, the switch fluorescence ratio is 1.027 ± 0.0092.

For AGGCAAGGGG, the switch fluorescence ratio came out at 1.04 ± 0.069.

Consider GGCAAATTTT, for which the switch fluorescence ratio turned out to be 1.02 ± 0.036.

CGAGTAAAAT: the switch fluorescence ratio was 1.08 ± 0.1.

Consider ATGTGATTTG, for which the switch fluorescence ratio came to 0.985 ± 0.035.

On to CAAGCCGTGT, for which the switch fluorescence ratio is 1.02 ± 0.036.

Take ATTCTTTTTT: the switch fluorescence ratio stood at 0.997 ± 0.024.

Turning to GAATTATCAT, the switch fluorescence ratio was 0.968 ± 0.015.

In the case of ACATTTTTTT, the switch fluorescence ratio amounted to 1.01 ± 0.029.

ACTAGCAGCT: the switch fluorescence ratio was 1.01 ± 0.025.

Consider AAGCTCCATT, for which the switch fluorescence ratio amounted to 0.967 ± 0.016.

Consider GGTAGGTCGT, for which the switch fluorescence ratio turned out to be 1.02 ± 0.074.

In the case of TACGCGTAAT, the switch fluorescence ratio turned out to be 1.012 ± 0.0052.

Turning to ATTTTAAGTC, the switch fluorescence ratio was found to be 0.987 ± 0.041.

As for TTCGGTTGTG, the switch fluorescence ratio came out at 0.96 ± 0.013.

As to CCGCTCGATG, the switch fluorescence ratio was 1.37 ± 0.023.

For the sequence GTATGCTAAC, the switch fluorescence ratio stood at 1 ± 0.043.

For CGGTTGGTGA, the switch fluorescence ratio was 0.974 ± 0.035.

For the sequence GGGGTAAGGG, the switch fluorescence ratio was found to be 1 ± 0.028.

Regarding TTGGATACGG, the switch fluorescence ratio worked out at 0.995 ± 0.031.

GGGTGATCCT: the switch fluorescence ratio worked out at 1.02 ± 0.073.

On to GGGCTGGACG, for which the switch fluorescence ratio worked out at 1 ± 0.043.

Regarding TCGGGCAGGG, the switch fluorescence ratio was 1.003 ± 0.0044.

Regarding CGTTTGGCCC, the switch fluorescence ratio was determined as 0.988 ± 0.044.

As to TCGAGGTAGA, the switch fluorescence ratio came to 1.01 ± 0.05.

As to ATGGGTTTGG, the switch fluorescence ratio was 1.01 ± 0.036.

Consider ACTACCTTAC, for which the switch fluorescence ratio turned out to be 3.15 ± 0.077.

For the sequence TTCCTCCCCT, the switch fluorescence ratio came out at 1.7 ± 0.82.

Turning to ATTTGCAGGA, the switch fluorescence ratio came out at 0.992 ± 0.046.

On to AATGTGACAT, for which the switch fluorescence ratio came out at 0.982 ± 0.033.

Turning to GGGGTGGCCA, the switch fluorescence ratio came to 0.99 ± 0.0098.

Take ACTGGTATAA: the switch fluorescence ratio was determined as 0.989 ± 0.015.

With GTTAGGTATA, the switch fluorescence ratio was found to be 0.9975 ± 0.0098.

With GGGTGTTCTG, the switch fluorescence ratio turned out to be 1.01 ± 0.018.

For AGGCCGTATT, the switch fluorescence ratio was 1 ± 0.029.

For the sequence TCAGGGGACG, the switch fluorescence ratio was determined as 1 ± 0.025.

As to TTGGAGAGGT, the switch fluorescence ratio was found to be 1.02 ± 0.019.

As to TTGACTTTAA, the switch fluorescence ratio worked out at 1 ± 0.083.

Regarding AGGTTCATTA, the switch fluorescence ratio is 1.01 ± 0.023.

TCTGGGTGAA: the switch fluorescence ratio was determined as 1.03 ± 0.081.

With TTGAGATTTG, the switch fluorescence ratio is 1.01 ± 0.013.

With GGGCTACTTG, the switch fluorescence ratio was determined as 0.9881 ± 0.0021.

For CCCGGGGCTG, the switch fluorescence ratio is 1.024 ± 0.0073.

In the case of GAGTCTCTTA, the switch fluorescence ratio amounted to 1 ± 0.027.

With GGCGTTGGGG, the switch fluorescence ratio is 1 ± 0.023.

Take TTATGATTTA: the switch fluorescence ratio is 0.9434 ± 0.0029.

In the case of AACCGCGGGT, the switch fluorescence ratio was found to be 1.03 ± 0.018.

Take GAGAGGGGAG: the switch fluorescence ratio stood at 0.983 ± 0.025.

As for CGTGAGAATG, the switch fluorescence ratio worked out at 0.997 ± 0.026.

In the case of TTCTACGGTA, the switch fluorescence ratio was 1.69 ± 0.68.

Take CCCAGTCAGA: the switch fluorescence ratio came out at 1.033 ± 0.0078.

Turning to AATTGGGCGA, the switch fluorescence ratio worked out at 0.989 ± 0.026.

With TACTGCGGTC, the switch fluorescence ratio came out at 0.998 ± 0.012.

On to GCCGTAGTGC, for which the switch fluorescence ratio is 1.01 ± 0.03.

With GGCCGTGGGC, the switch fluorescence ratio was found to be 1 ± 0.043.

As to AGAAAAGGGC, the switch fluorescence ratio was determined as 1.026 ± 0.0014.

For the sequence CCAAAATTCC, the switch fluorescence ratio came to 1.12 ± 0.034.
